Data reported in the supplement of paper PMC7125110.
± gives the standard error. This sample holds only a part of the variants without activity.

B1: glmS ribozyme (parent)
chain: AUAAAAGCGCCAGAACUACAGAAAUGUAGUUGACGAGGAGGAGGUUUAUCGAAUUUUCGGCGGAUGCCUCCAAA

Tests used:
Details in all cases: with glucosamine-6-phosphate
glucosamine-6-phosphate [1] = variants of: B1; test: self-cleavage kobs at 40 uM GlcN6P; higher = faster cleavage; RNA array
How it was run: (§1)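 Glucosamine-6-phosphate in HEPES/KCl/Mg(OAc)2 buffer, at 40 μM to 10 mM, was flowed over barcoded ribozyme variants transcribed in situ by E. coli RNA polymerase on sequenced MiSeq chips. Tracking was through a hybridised Cy3 probe at 37 °C. kobs, kcat and KM came from exponential decay fits and weighted Michaelis–Menten fits of normalised per-tile medians.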

glucosamine-6-phosphate [2] = variants of: B1; test: self-cleavage kobs at 160 uM GlcN6P; higher = faster cleavage; RNA array
How it was run: as §1

glucosamine-6-phosphate [3] = variants of: B1; test: self-cleavage kobs at 640 uM GlcN6P; higher = faster cleavage; RNA array
How it was run: as §1

glucosamine-6-phosphate [4] = variants of: B1; test: self-cleavage kobs at 2500 uM GlcN6P; higher = faster cleavage; RNA array
How it was run: as §1

glucosamine-6-phosphate [5] = variants of: B1; test: self-cleavage kobs at 10000 uM GlcN6P; higher = faster cleavage; RNA array
How it was run: as §1

Variant	self-cleavage kobs at 40 uM GlcN6P (glucosamine-6-phosphate [1]) [s⁻¹]	self-cleavage kobs at 160 uM GlcN6P (glucosamine-6-phosphate [2]) [s⁻¹]	self-cleavage kobs at 640 uM GlcN6P (glucosamine-6-phosphate [3]) [s⁻¹]	self-cleavage kobs at 2500 uM GlcN6P (glucosamine-6-phosphate [4]) [s⁻¹]	self-cleavage kobs at 10000 uM GlcN6P (glucosamine-6-phosphate [5]) [s⁻¹]
G35A G41A	< 1e-05	< 1e-05	< 1e-05	< 1e-05	< 1e-05
U30G A36G U54G	< 1e-05	–	–	–	< 1e-05
C8A A36U A64U C70U	< 1e-05	–	< 1e-05	< 1e-05	–
G32A G37C A42U	< 1e-05	–	–	–	–
G7C U49A	< 1e-05	< 1e-05	–	< 1e-05	< 1e-05
A33U A48U	< 1e-05	< 1e-05	< 1e-05	–	< 1e-05
G29U U47A U57G	< 1e-05	–	–	–	–
G40U U56C G59C	< 1e-05	–	–	–	< 1e-05
G7C U65G	< 1e-05	–	< 1e-05	< 1e-05	< 1e-05
G43C G66A	< 1e-05	–	–	–	–
A33G U55C G59A	< 1e-05	–	< 1e-05	< 1e-05	< 1e-05
A42G C67G	0.000618 ± 0.00013	0.00112 ± 0.00024	0.00232 ± 0.00045	0.00814 ± 0.0014	0.0123 ± 0.0031
C16U U47C	7.47e-05 ± 1.5e-05	–	–	0.00165 ± 0.00046	0.00228 ± 0.00034
G7A G32A U45A A52G U65G	< 1e-05	–	–	–	–
C34U G40U C67G	< 1e-05	–	–	< 1e-05	< 1e-05
A12U C50G G51C	< 1e-05	–	–	–	–
C10G G51A	< 1e-05	–	< 1e-05	< 1e-05	< 1e-05
U54C C71U	0.000802 ± 8.6e-05	0.00142 ± 0.00023	0.00401 ± 0.00061	0.0101 ± 0.0027	0.036 ± 0.0094
U54G C67U	0.000313 ± 5.9e-05	0.000612 ± 0.00014	0.00333 ± 0.00057	0.00208 ± 0.00059	–
A48C G60U	< 1e-05	< 1e-05	< 1e-05	< 1e-05	< 1e-05
A6U G38U C71A	< 1e-05	–	–	–	–
C16A G29C G37U	< 1e-05	–	–	< 1e-05	–
